B1: VH:VL chains; a variant is named by its letters at X, in order (parent)
chain 1: QVQLVQSGAEVKKPGASVKVSCKASGYTFTDYXMHWVRQAPGQGLEWMGXVNPNXXXTTYNQKFEGRVTMTTDTSTSTAYMELRSLRSDDTAVYYCARXNXLDXWGQGTTVTVSS
chain 2: DIQMTQSPSSLSASVGDRVTITCSVSSSVSSIYLHWYQQKPGKAPKLLIYSTSNLASGVPSRFSGSGSGTDFTLTISSLQPEDFATYYCQVYSGYPLTFGGGTKVEIK

Variants of: B1
Assay: yeast display scFab, FACS + sequencing
How it was run: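 Heavy-chain CDR mutant scFab yeast surface library, FACS-sorted after labelling with biotinylated ovalbumin (260 μg/mL in PBSB, 3 h, room temperature) or soluble membrane proteins (130 μg/mL, 20 min on ice), plus anti-Myc. Gates collected the top 25% and bottom 10% of binders, and samples from two replicates were deep sequenced. Non-specific binding call: a sequence was positive if found in ≥3 of 4 positive samples (membrane protein and ovalbumin pooled) and no negatives, and negative by the converse rule.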

Variant	non-specific binding call
DATGGALD	no binding
YATEDDWV	no binding
DAKENDVA	no binding
DAKENDVF	no binding
DAKTDDGV	no binding
SAKRDSAS	no binding
YAKRDALA	no binding
YARETDVV	no binding
FATGGSGD	binds
SARKGDVA	no binding
DARGGAAV	no binding
VATRGFWD	no binding
VAKKNASF	no binding
SAREGYSV	binds
DAKEGAGD	no binding
AARADDVY	no binding
AARADDVA	no binding
AARADDVD	no binding
FARGGYVA	binds
DAKEGDAD	no binding
DAKEGDAV	no binding
AAKEGALV	no binding
YAGTGVVD	binds

Variant	non-specific binding call
FATRASGD	binds
FAKRGAWS	binds
DARADSLV	no binding
SAREGDLA	no binding
FAGTSVGS	binds
SARTDFWF	binds
DATGGASD	no binding
VATGDSLV	no binding
AATTDAGD	no binding
AARADSWV	no binding
AATGSAWA	no binding
FARKSFGS	binds
DARGAYLV	no binding
YARAGSVS	binds
FARKSDSS	no binding
YATKGAWA	binds
YAKADSGA	binds
YARGADGS	no binding
YAREDDGA	no binding
YARADAAA	no binding
DARGGDGS	no binding
YARADDVA	no binding
YARADDVF	no binding

Variant	non-specific binding call
AATRNVGV	binds
DARGGAVV	no binding
DARGGAVY	no binding
SAREGDAV	no binding
DARGGDWV	no binding
DARGGDVY	no binding
DARGGFGV	no binding
FAKEGFWD	binds
YARAGYAV	binds
VAKRDSAS	no binding
VARAADAD	no binding
AARADDGV	no binding
AARADDGS	no binding
SARRGDWA	binds
VARETDVA	no binding
DATGGSGD	no binding
DATGGSGA	no binding
YARETAGV	binds
FATKGFGD	binds
FATEGASA	no binding
DARRGAGV	no binding
YATEGVWV	binds
DATGGDWA	no binding

Variant	non-specific binding call
AARADDAV	no binding
AARADDAA	no binding
DAKKNASF	no binding
AARADSAD	no binding
YATKGFGD	binds
AARADDSA	no binding
AARADDSV	no binding
FARETFGV	binds
YARADDSA	no binding
DATGGSLD	no binding
DAKENAVY	no binding
DARGGSLS	no binding
DARGGSLD	no binding
YAKADYSS	binds
VATGDFGV	no binding
YARADDGS	no binding
YARADDGD	no binding
VARADSGV	no binding
YATAADWD	no binding
YARRAAVS	binds
DAKRDSAS	no binding
VAGTSDGA	no binding
DATEDDSA	no binding

Variant	non-specific binding call
DATGGAGD	no binding
AARETVGA	binds
DATGGSVD	no binding
DATGGAVA	no binding
DARADSGV	no binding
VATGDDGV	no binding
YAKEGDGV	no binding
YATAADAD	no binding
SAREGSSA	no binding
DATGGYAV	no binding
DATRSSWD	no binding
VAKEGAWV	binds
AARADFGV	no binding
AARADSSA	no binding
YAREAALS	binds
FATGSDGA	no binding
YATEDSGF	no binding
DATRGAGD	no binding
DATRGAGY	no binding
FAKAGFVA	binds

From the emibetuzumab library of Makowski et al. (2022)
